Results on two proteins are retold here after paper PMC4041915, “CBD binding domain fused γ-lactamase from Sulfolobus solfataricus is an efficient catalyst for (-) γ-lactam production” (BMC Biotechnology, 2014).

Substrate in the data set: O=C1NC2C=CC1C2
The data set is described as follows: purified protein. The note with it: free enzyme, 50 mM phosphate pH 7.0, 70°C (standard assay), 4.6-32.2 mM substrate, racemate taken as the substrate (not stated for the kinetics), only (+) enantiomer hydrolysed.

B1: Cbd-Linker-Gla (cbd-linker-gla fusion enzyme; (+) γ-lactamase Gla) (Saccharolobus solfataricus P2) (protein)
chain: MGIKLPTLEDLREISKQFNLDLEDEELKSFLQLLKLQLESYERLDSLPDYTPRVKYQRTLGRPPMKEENPYGALVWITSIKGKEEGKLKGKRICIKDNVMIAGIPMLNGSKMLEGFVPHMDATVVSRILDEAGEIVAKTTCEDLCFSGGSHTSYPWPVLNPRNPEYMAGGSSSGSAVAVASGYCDMAVGGDQGGSIRIPSSWVGIYGLKPTHGLVPYTGAFSIEPTLDHLGPMANTVKDVALLLEVIAGRDELDSRQPDSLPPPPVKPYSKLIDGDVKDMKVGIVKEGFNWSNSEKDVDELVLDSAKKLEDYGIKVEDTSIPLHRMGLDIWTPIAIEGATATMILGSGVGWGRKGLFETQIADFFGNSLKSRARDLPNTVKGVLMLGYLMIKMYNNRYYAKARNLSIVLKEAYDSALRKYDALIMPTTPMKAMRYKSEPGFDEYFIMALGMINNTAPFDVTGHPAMNIPVGYSNGLPVGLMIIGRHFEEDKVLKLANVFERIKK
With B1, the Michaelis-Menten constant (Km) was 14.3 ± 1.6 mM.

B2: Gla-Linker-Cbd (gla-linker-cbd fusion enzyme; (+) γ-lactamase Gla) (Saccharolobus solfataricus P2) (protein)
chain: B1 chain
Turning to B2, where the note is “preparation has a low-”, the Michaelis-Menten constant (Km) is 5.7 ± 0.1 mM.

In general, Km refers to the substrate concentration at which the rate is half of its maximum.
